The results in this text go back to publication PMC2940758, “The N-Terminal Domain of the Arenavirus L Protein Is an RNA Endonuclease Essential in mRNA Transcription”.

For the data set, the target named is T1, NL1 (N-terminal endonuclease domain of L protein) (Lymphocytic choriomeningitis virus …, UniProt P14240 1-196).
T1 sequence: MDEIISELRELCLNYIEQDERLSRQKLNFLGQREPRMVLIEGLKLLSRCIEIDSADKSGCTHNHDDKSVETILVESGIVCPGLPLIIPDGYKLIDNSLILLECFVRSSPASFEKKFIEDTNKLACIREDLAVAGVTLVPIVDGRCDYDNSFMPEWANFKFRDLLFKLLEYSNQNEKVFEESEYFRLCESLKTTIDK
In words: EMSA. The following applies: protein: recombinant; tags: N-terminal His6; label: 5'-32P; unpaired.

With AUUUUGUUUUUAAUAUUUC (ssRNA) [19-mer unstructured RNA], the binding result is “binds”.
